According to patent publication US20190307847A1:

Molecular target: mouse FGFR4/β-klotho complex co-expressed in rat L6 myoblast cells (mouse) (UniProt Q03142)
Test: cell-based or functional assay

mouse FGFR4/β-klotho complex co-expressed in rat L6 myoblast cells (mouse), sequence (Q03142 17-799, chain 1 of 2): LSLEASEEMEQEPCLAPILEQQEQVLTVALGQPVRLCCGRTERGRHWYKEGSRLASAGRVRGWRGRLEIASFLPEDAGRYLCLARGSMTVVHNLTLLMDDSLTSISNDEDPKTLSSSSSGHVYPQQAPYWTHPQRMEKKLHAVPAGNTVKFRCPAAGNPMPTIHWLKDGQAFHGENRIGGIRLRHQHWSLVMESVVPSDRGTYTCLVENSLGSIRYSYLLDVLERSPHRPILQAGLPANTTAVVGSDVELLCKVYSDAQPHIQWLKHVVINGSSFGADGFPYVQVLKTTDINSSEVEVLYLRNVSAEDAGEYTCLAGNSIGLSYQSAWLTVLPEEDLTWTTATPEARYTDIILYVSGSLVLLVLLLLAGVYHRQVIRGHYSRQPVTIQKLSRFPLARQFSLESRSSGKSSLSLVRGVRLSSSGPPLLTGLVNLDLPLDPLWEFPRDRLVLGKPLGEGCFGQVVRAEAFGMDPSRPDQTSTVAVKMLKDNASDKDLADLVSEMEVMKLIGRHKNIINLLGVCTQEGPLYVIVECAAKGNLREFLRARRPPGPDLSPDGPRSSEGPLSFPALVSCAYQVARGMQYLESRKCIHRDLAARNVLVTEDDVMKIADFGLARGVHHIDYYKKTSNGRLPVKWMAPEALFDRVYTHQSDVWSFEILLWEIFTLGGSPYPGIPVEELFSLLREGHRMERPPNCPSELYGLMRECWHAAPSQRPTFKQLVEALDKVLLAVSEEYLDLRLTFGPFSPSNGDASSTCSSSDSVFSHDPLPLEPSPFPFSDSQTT
mouse FGFR4/β-klotho complex co-expressed in rat L6 myoblast cells (mouse), sequence (Q99N32 whole entry, chain 2 of 2, further chain): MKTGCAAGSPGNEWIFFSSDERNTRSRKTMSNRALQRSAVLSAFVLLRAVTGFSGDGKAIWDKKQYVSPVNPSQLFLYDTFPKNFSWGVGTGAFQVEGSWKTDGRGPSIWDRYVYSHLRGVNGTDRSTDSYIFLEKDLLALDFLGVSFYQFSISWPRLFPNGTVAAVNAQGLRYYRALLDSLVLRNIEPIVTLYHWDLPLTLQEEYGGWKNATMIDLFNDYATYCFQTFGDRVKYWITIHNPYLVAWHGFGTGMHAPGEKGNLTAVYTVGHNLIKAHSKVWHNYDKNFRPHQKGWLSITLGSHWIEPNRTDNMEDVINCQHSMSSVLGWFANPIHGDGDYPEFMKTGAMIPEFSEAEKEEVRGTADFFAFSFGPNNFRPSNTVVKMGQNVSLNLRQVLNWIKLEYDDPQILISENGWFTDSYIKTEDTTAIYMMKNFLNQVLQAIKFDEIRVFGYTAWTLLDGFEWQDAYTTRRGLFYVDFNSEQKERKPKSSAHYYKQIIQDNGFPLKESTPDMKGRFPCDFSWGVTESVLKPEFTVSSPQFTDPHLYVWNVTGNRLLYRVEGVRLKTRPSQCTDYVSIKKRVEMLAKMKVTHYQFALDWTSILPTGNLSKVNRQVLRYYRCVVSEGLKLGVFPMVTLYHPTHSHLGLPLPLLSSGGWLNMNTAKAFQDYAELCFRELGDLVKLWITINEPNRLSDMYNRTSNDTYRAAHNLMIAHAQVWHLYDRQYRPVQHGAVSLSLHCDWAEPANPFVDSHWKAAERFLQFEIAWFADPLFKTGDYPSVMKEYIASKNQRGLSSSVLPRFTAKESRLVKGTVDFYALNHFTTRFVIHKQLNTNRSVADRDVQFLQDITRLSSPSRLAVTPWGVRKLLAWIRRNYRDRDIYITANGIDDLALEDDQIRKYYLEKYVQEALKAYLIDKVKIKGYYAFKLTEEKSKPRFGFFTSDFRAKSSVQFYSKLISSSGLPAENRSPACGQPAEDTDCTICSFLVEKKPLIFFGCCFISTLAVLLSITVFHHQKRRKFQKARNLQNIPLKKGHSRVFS

Substance: FGF19 (human fibroblast growth factor 19, wild type) (from UniProt O95750 25-216) (ligand)
- EC50 (pM), ELK luciferase assay in L6 cells: 52.5 pM
- Emax (fold potentiation), ELK luciferase assay in L6 cells (fold potentiation): 1.82
